Patent publication US20160138042A1 (COMMONWEALTH SCIENTIFIC AND INDUSTRIAL RESEARCH ORGANISATION, published 2016)

Target: the molecule itself
Assay: directed yeast two-hybrid, self-association (same fragment as bait and prey)

B1: Sr33 CC1-225 (CC-NB domain of Sr33) (other)
chain: MDIVTGAIAKLIPKLGELLVGEYKLHKGVKKNIEDLLKELKTMNAALIKIGEVPPDQLDSQDKLWADEVRELSYVIEDAVDKFLVRVHGVEPDDNTNGFKGLMKRTTKLLKKVVDKHGIAHAIKDIKKELQEVAARRDRNKFDGIASIPTEAIDPRLRALYIEAAELVGIYGKRDQELMSLLSLEGDDASTKKLKKVSIVGFGGLGKTTLAKAVYEKIKGDFDCH
notes: Expressed as both bait and prey in yeast two-hybrid; The fused GAL4 domains are not included; also called Sr33 CC225
- binding result: no binding

B2: Sr33 CC1-125 (truncated portion of the CC domain of Sr33) (other)
chain: MDIVTGAIAKLIPKLGELLVGEYKLHKGVKKNIEDLLKELKTMNAALIKIGEVPPDQLDSQDKLWADEVRELSYVIEDAVDKFLVRVHGVEPDDNTNGFKGLMKRTTKLLKKVVDKHGIAHAIKD
notes: Expressed as both bait and prey in yeast two-hybrid; The fused GAL4 domains are not included; also called Sr33 CC125
- binding result: no binding
